Assays:
[1] = test system: MS2 coat protein; assay: apparent KD of MS2 coat protein, switch ON state; designed switch direction (-1 OFF switch, 1 ON switch): -1; higher = weaker reporter binding; settings: FMN input: 0 or 200 uM; Eterna round: R93 (includes R88 designs)
In short: (§1)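 Illumina sequencing clusters served as templates for on-chip transcription of the designed RNA switches. SNAP-549-labelled MS2 coat protein was then titrated in twofold steps from 0.7 or 1.5 nM to 3 µM, allowing 0.8–1.5 h per step at first and 10–20 min per step later. The buffer held 100 mM Tris-HCl pH 7.5, 80 mM KCl and 4 mM MgCl2, without or with constant ligand. Apparent KD is the median per design of normalised cluster binding-curve fits.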

[2] = test system: MS2 coat protein; assay: apparent KD of MS2 coat protein, switch OFF state (with FMN for OFF switches, without FMN for ON switches); designed switch direction (-1 OFF switch, 1 ON switch): -1; higher = weaker reporter binding; settings: FMN input: 0 or 200 uM; Eterna round: R93 (includes R88 designs)
In short: as §1

Sequence | apparent KD of MS2 coat protein [1] [nM] | apparent KD of MS2 coat protein [2] [nM]
AACAUGUUAGGAUAUUGAAGAAAAGAAAAGAAAGAAAAGAACAAGAAGGAACAUGAGGAUCACCCAUGUAAGAA [EteRNA is fun!] | 25 | 17.2
AACGAACAUGAGGAUCACCCAUGUCAGGAUAUGCGAAGAACGAUCGAACAAACGAUAAGCAGAAGGGACAGAGA [Amethyst 98] | 25.1 | 50
AACGAGUCAGGAUAUACAAAAAGUAAAUAAGUAAAACCAAAGUAGAAGGGACAUGAGGAUCACCCAUGUAAAUA [JR_Exc004_Sub019] | 42.8 | 24.4
AACUGACAUGAGGAUCACCCAUGUCAGGAUAUGACAUCGAAAAAAAAAAAAAUCGUUGUCAGAAGGGACAUGGA [Design 74: Sub-opt R] | 20.9 | 32.5
AACUGACAUGAGGAUCACCCAUGUCAGGAUAUGCUUCUAGGAAAAAAAAAAACUAGAUGCAGAAGGGAUAUGGA [Design 37 :P Sub-opt 13] | 14.5 | 12.1
AAGAAACAUGAGGAUCACCCAUGUAAGGAUAUGAAAAAGAAAAGAAAAGAAAGAAGAAUCAGAAGGUACAAAGG [Nakhtnebtepnefer Intef III] | 24.1 | 26.1
AAGAAACAUGAGGAUCACCCAUGUCAGGAUAUGCAGGACUGACGAAAGUCAGUCCAAAGCAGAAGGGACUAGAA [8-pair stack] | 29.9 | 56.5
AAGAAACAUGAGGAUCACCCAUGUCAGGAUAUGUAAAAGAAAAGAAAAGAAAGAAGAAACAGAAGGGACAAAGG [Neferkaure] | 83.9 | 126
AAGAAAGCAGGAUAUACAUGAGGAUCACCCAUGUAAAAGAAAGAAAAGGGAAAGAAAAGUAGAAGGGCUAAGAA [User/Heqamaatre-setpenamun Ramesses IV] | 27.2 | 74.1
AAGAAAGCAGGAUAUACAUGAGGAUCACCCAUGUAAAAGAAAGAGGGAAAAGAGAAAAGUAGAAGGGCUAAGAA [Cleopatra IV] | 37.3 | 33.8
AAGAAAGGAGGAUAUACAUGAGGAUCACCCAUGUAAAAGAAAGAAGGGAAAGAGAAAAGUAGAAGGCCUAAGAA [Wahibre Psamtik I] | 32.7 | 31
AAGAAAGUAGGAUAUACAAGGAAGAAAGAAAAGAAAAGAAAACAUGAGGAUCACCCAUGUAGAAGGACUUAGAA [EteRNA is fun!] | 27.5 | 18.7
AAGAACCAAGGAUAUACAUGAGGAUCACCCAUGUAAAAGAAAGAAAGGGAAAAGAAAAGUAGAAGGUGGAAGAA [Takelot I] | 28.1 | 32.8
AAGAACGCAGGAUAUACAUGAAAGAAAGAAAAGAAAAGAAAACAUGAGGAUCACCCAUGUAGAAGGGCGAAGAA [EteRNA is fun!] | 37.9 | 39.6
AAGAACUGAGGAUAUACAAAAGAAAAGAAAAGAAAGAAAGAACAUGAGGAUCACCCAUGUAGAAGGCGGAAGAA [Khahotepre Sobekhotep VI] | 31.5 | 14.7
AAGAACUGAGGAUAUACAUAAUAAAAGAAAAGAAACAAAGAACAUGAGGAUCACCCAUGUAGAAGGCGGAAGAA [Menwadjre Sihathor] | 29.4 | 20.7
AAGAAGACAGGAUAUACAUGAGGAUCACCCAUGUAAAAGAAAGAAAAGGGAAAGAAAAGUAGAAGGGUCAAGAA [Menkheperure Thutmose IV] | 39.6 | 36.8
AAGAAGAGAGGAUAUACAUGAGGAUCACCCAUGUAAAAGAAAGAAGGGAAAGAGAAAAGUAGAAGGCUCAAGAA [Usermaatre-setpenamun Rudamun] | 25.6 | 31
AAGAAGAUAGGAUAUACAAAAUAAAAGAAAAGAAAGAAAGAACAUGAGGAUCACCCAUGUAGAAGGGUCAAGAA [Kheperkare Senusret I] | 54.6 | 56.5
AAGAAGAUAGGAUAUACAAGAAAGAAAGAAAAGAAAAGAAAACAUGAGGAUCACCCAUGUAGAAGGAUCUAGAA [EteRNA is fun!] | 30.8 | 15.9
AAGAAGCUAGGAUAUACAUGAGGAUCACCCAUGUAAAAGAAAGAAGGGAAAGAGAAAAGUAGAAGGAGCAAGAA [Tefnakht] | 26.6 | 34.4
AAGAAGGCAGGAUAUACAUGAGGAUCACCCAUGUAAAAGAAAGAAAAGGGAAAGAAAAGUAGAAGGGCCAAGAA [Kamose] | 35.4 | 72.1
